The results in this text go back to the RNAGym collection of RNA variant scans (doi:10.7554/elife.80360).

Sequences and labels used below:
B1: Hairpin Ribozyme (parent)
chain: GUCCUCUUUCACGUGCGCGUGAAAGAGAGAAGUGAACCAGAGAAACACACGUUGUGGUAUAUUACCUGGUA

The variants in the series derive from B1. The series is described as follows: self-cleavage, relative activity (ratio to wild type); higher = more cleavage; co-transcriptional.
G21C A35G: the self-cleavage was determined as 0.666. In the case of A22C A45G it was 0.15. In the case of A22C U67G it was 0.204; in that of A22U A24U, 0.554; in that of A22U A24C, 0.71.

On to A22U C46A, for which the self-cleavage was determined as 0.187. Take A22U G25C: the self-cleavage is 0.143.

In the case of A22U G25A, the self-cleavage stood at 0.149.

As for A22C G27C, the self-cleavage turned out to be 0.123.

As for A22G A26G, the self-cleavage came to 1.09. On to U20G U52C, for which the self-cleavage came to 0.998. Turning to U20G U52A, the self-cleavage worked out at 1.09.

Regarding U20G U58G, the self-cleavage came out at 0.835. In the case of A22C A61U it was 0.204; in that of A22C A61C, 0.3; in that of U20G U67G, 0.157. In the case of G21A C46G it was 0.254; in that of G21A C46U, 0.173. Then G21U C65U, with 0.234; and G21U C65G, with 0.257; and G21C A49U, with 0.293. Consider G21C A49C, for which the self-cleavage came to 0.17. Then G21C A49G, with 0.302; and A22G C65A, with 0.631. For the variant A22C, the self-cleavage was found to be 0.848. In the case of A22U it was 0.864. Then A22G, with 0.871; and G21A G27A, with 0.346.

Take G21A G27C: the self-cleavage is 0.195. Take G21A A23G: the self-cleavage was found to be 0.707.

Consider G21A A23U, for which the self-cleavage worked out at 0.825. For G21A A23C, the self-cleavage came to 0.683. In the case of A22C C38A, the self-cleavage turned out to be 0.124. Then U20G G29U, with 0.101; and A22C A28G, with 0.807. As to A22C C50A, the self-cleavage came to 0.22. Then A22C C50G, with 0.126; and U20G U70G, with 0.994; and G21C U70A, with 0.779.

Consider G21C U70C, for which the self-cleavage came out at 0.965. Then G21A A39G, with 0.306; and U20G U60G, with 0.662; and A22G A36U, with 0.423.

In the case of A22G A36C, the self-cleavage is 0.515. Take A22C U55A: the self-cleavage is 0.217.

As to G21C A47G, the self-cleavage came to 0.157. G21A C66A: the self-cleavage stood at 0.201. Turning to G21U U62C, the self-cleavage worked out at 0.272.

As to G21U G40C, the self-cleavage came to 0.122. For G21A U53G, the self-cleavage came to 0.699.

Turning to G21A G25A, the self-cleavage worked out at 0.239. For the variant G21A G25C, the self-cleavage worked out at 0.358.

With G21U A47C, the self-cleavage came out at 0.282.

U20G G21C: the self-cleavage came out at 0.75. As for U20G G21A, the self-cleavage was determined as 0.846. For A22G A28U, the self-cleavage turned out to be 0.673.

Consider A22G A28C, for which the self-cleavage is 0.689.

As for U20G G40A, the self-cleavage worked out at 0.296. Consider U20G G40U, for which the self-cleavage is 0.206. Regarding A22U A49G, the self-cleavage is 0.488. In the case of A22U A49C it was 0.146. Consider A22G U70C, for which the self-cleavage was 0.57.

On to U20G G69C, for which the self-cleavage was found to be 0.284. Then U20G G69A, with 0.421; and U20G G69U, with 0.22. Then G21A G69C, with 0.246; and G21A G69U, with 0.197. Then A22U A47G, with 0.115; and U20G G51C, with 0.572. For the variant G21U G25C, the self-cleavage was found to be 0.342. G21U G25U: the self-cleavage turned out to be 0.461. Then A22C U33G, with 0.0647; and G21U G51A, with 0.822; and A22C A49G, with 0.512. Then G21C C38G, with 0.154. In the case of G21U G32C it was 0.145; in that of G21U G32A, 0.18; in that of G21A U62C, 0.199. On to G21A U62A, for which the self-cleavage was found to be 0.135. For A22G U62C, the self-cleavage was determined as 0.276. Then G21U A24G, with 0.805; and A22C A36G, with 1.05.

Turning to G21A U52A, the self-cleavage turned out to be 0.78.

Take G21A U60G: the self-cleavage is 0.533. In the case of A22U G29U it was 0.071. In the case of A22U G29C it was 0.214. Then G21C, with 0.812; and G21A, with 0.809; and G21U, with 0.844.

G21U A31U: the self-cleavage was determined as 0.0962. Then G21U G68C, with 0.187; and G21A A45G, with 0.177; and G21A A45C, with 0.16. Then U20G C65U, with 0.374; and A22G C66G, with 0.302. Then A22G U60A, with 0.949; and A22U A30U, with 0.262. Turning to A22G U55G, the self-cleavage came out at 0.33. For the variant A22U C48U, the self-cleavage amounted to 0.0855.

Regarding A22U C48G, the self-cleavage is 0.111. Take G21A U33A: the self-cleavage worked out at 0.151.

As for A22C G29U, the self-cleavage amounted to 0.131. Take A22C G29A: the self-cleavage was found to be 0.0644. In the case of A22U C65G it was 0.266; in that of A22U C65A, 0.903; in that of A22U C65U, 0.229. In the case of A22U G56C it was 0.214. A22U G56U: the self-cleavage is 0.063.

In the case of A22G A43U, the self-cleavage came to 0.0762. Then A22G A43C, with 0.158. As to A22G A43G, the self-cleavage is 0.121. Turning to U20G U62A, the self-cleavage was found to be 0.149. In the case of U20G U62G it was 0.323. In the case of G21A A44U it was 0.215; in that of G21A A44G, 0.142; in that of G21A A44C, 0.116. G21C A26G: the self-cleavage was found to be 0.528. Then G21U U70A, with 0.791; and G21U U70G, with 0.687; and G21U A61G, with 0.245. Then G21U C48G, with 0.132. Turning to G21U C48A, the self-cleavage stood at 0.122. Then G21U C48U, with 0.101; and G21U U67G, with 0.36; and G21A U67A, with 0.23. G21A U67C: the self-cleavage was 0.248.

Consider A22G A23G, for which the self-cleavage turned out to be 0.945. In the case of G21A A35U it was 0.653.

Consider A22U A71G, for which the self-cleavage is 0.791. In the case of A22U A71U it was 0.747. Then G21C A39C, with 0.463. In the case of A22G A45C it was 0.13; in that of G21C U62C, 0.334; in that of G21C U62A, 0.206.

As for G21C A22G, the self-cleavage worked out at 0.786. For G21U A43C, the self-cleavage was found to be 0.146. Then G21C C50U, with 0.256. In the case of G21C C50A it was 0.386; in that of A22C G57C, 0.117; in that of A22C G57U, 0.162.

For A22G A47U, the self-cleavage is 0.102. As for G21C A31U, the self-cleavage is 0.0322. Then G21C A31C, with 0.0833; and A22G G57C, with 0.141; and G21A U58C, with 0.916. For the variant G21A U58A, the self-cleavage is 0.533.

As for A22C A44G, the self-cleavage was 0.135. Consider G21C U53G, for which the self-cleavage is 0.58.

Take A22C A41U: the self-cleavage worked out at 1.06. Then A22U A64C, with 0.113; and G21C G40A, with 0.258; and G21A G57U, with 0.232.

Turning to G21A G57C, the self-cleavage was 0.193.

For the variant G21C A41G, the self-cleavage was 0.606.

As to G21A C50G, the self-cleavage was determined as 0.217. Then G21A A61C, with 0.253. In the case of A22G C50A it was 0.227. Turning to A22G G42A, the self-cleavage turned out to be 0.143.

In the case of A22U A26C, the self-cleavage came out at 0.479. Then A22U A26U, with 0.907; and A22C A39U, with 0.461; and G21A G34C, with 1.11. With G21A A22C, the self-cleavage amounted to 0.581. In the case of G21A A22U it was 0.771; in that of G21U U52G, 0.661. Turning to G21C G42A, the self-cleavage was 0.216. Then G21C G42C, with 0.195.
